Measured values published in PMC7039436.

Molecular target: mono-ubiquitinated human FANCD2 (ubiquitin on Lysine 561) (human) (UniProt Q9BXW9)
Assay: biotin affinity purification with 3C protease elution; in vitro ubiquitination reaction with Avi-ubiquitin loaded on avidin agarose, 2 hrs 4 °C, washed with 10 CV 50 mM Tris-HCl pH 7.4, 150 mM NaCl, 10% glycerol, 1 mM DTT; eluted overnight with 100 nM GST-HRV-3C; Coomassie gel

stoichiometry N: 1
Substance: mono-ubiquitinated human FANCI (ubiquitin on Lysine 523) (from UniProt Q9NVI1 1-1328; P0CG47 1-76) (natural protein)
